Square brackets hold non-standard residues; d marks the D form. Ends that are not written are not given here. pT = C[C@@H](OP(=O)(O)O)[C@H](N)C(=O)O

This assay has as its target HLA-A*02:01 (Homo sapiens, UniProt P04439, D140Y/D185E/D98H/E176V/E277Q/G131W/G231S/I119V/I121R/I166T/I218V/L300P/L318F/N151K/N90K/P208A/P217A/Q86G/Q94H/R138H/R169H/T345S). The experiment in a line: MHC binding assay: UV-ligand exchange with β2m ELISA. Conditions: binding to HLA-A*02:01, UV-ligand exchange. An excerpt:
Candidate peptides for T cell based therapies according to the present invention were further tested for their MHC binding capacity (affinity). The individual peptide-MHC complexes were produced by UV-ligand exchange, where a UV-sensitive peptide is cleaved upon UV-irradiation, and exchanged with the peptide of interest as analyzed. Only peptide candidates that can effectively bind and stabilize the peptide-receptive MHC molecules prevent dissociation of the MHC complexes. To determine the yield of the exchange reaction, an ELISA was performed based on the detection of the light chain (β2m) of stabilized MHC complexes. The assay was performed as generally described in Rodenko et al. (Rodenko et al., 2006).
96 well MAXISorp plates (NUNC) were coated over night with 2 ug/ml streptavidin in PBS at room temperature, washed 4× and blocked for 1 h at 37° C. in 2% BSA containing blocking buffer. Refolded HLA-A*02:01/MLA-001 monomers served as standards, covering the range of 15-500 ng/ml. Peptide-MHC monomers of the UV-exchange reaction were diluted 100-fold in blocking buffer. Samples were incubated for 1 h at 37° C., washed four times, incubated with 2 ug/ml HRP conjugated anti-β2m for 1 h at 37° C., washed again and detected with TMB solution that is stopped with […]. Absorption was measured at 450 nm. Candidate peptides that show a high exchange yield (preferably higher than 50%, most preferred higher than 75%) are generally preferred for a generation and production of antibodies or fragments thereof, and/or T cell receptors or fragments thereof, as they show sufficient avidity to the MHC molecules and prevent dissociation of the MHC complexes.
(In general: ELISA stands for enzyme-linked immunosorbent assay.)
With “ALEAUQLYL (ALEA[pT]QLYL; listed as Homo sapiens) [SEQ ID NO: 29, HLA-A*02 peptide, source gene DEPDC4; U = phospho-threonine]”, the “Peptide Exchange (peptide exchange yield)” value (“Peptide Exchange” for short) was ““+++” (≥50 = +++)”.

On to “ALEEQLHQV (listed as Homo sapiens) [SEQ ID NO: 19, HLA-A*02 peptide, source genes KRT25, KRT28, KRT27]”, for which the “Peptide Exchange” value is reported as ““++” (≥20% = ++)”.

On to “ALNPVIYTV (listed as Homo sapiens) [SEQ ID NO: 5, HLA-A*02 peptide, source gene DRD4]”, for which the “Peptide Exchange” value is ““++” (≥20% = ++)”.

Regarding “ALTALQNYL (listed as Homo sapiens) [SEQ ID NO: 6, HLA-A*02 peptide, source gene TFAP2B]”, the “Peptide Exchange” value was ““+++” (≥50 = +++)”.

As to “FIIPTVATA (listed as Homo sapiens) [SEQ ID NO: 7, HLA-A*02 peptide, source gene ABCC11]”, the “Peptide Exchange” value is listed as ““++++” (≥75% = ++++)”.

“FLDEEVKLI (listed as Homo sapiens) [SEQ ID NO: 43, HLA-A*02 peptide, source gene FTL]”: the “Peptide Exchange” value is reported as ““+++” (≥50 = +++)”.

For “FLSSEAANV (listed as Homo sapiens) [SEQ ID NO: 30, HLA-A*02 peptide, source gene TNFAIP2]”, the “Peptide Exchange” value is ““++” (≥20% = ++)”.

On to “FLVEHVLTL (listed as Homo sapiens) [SEQ ID NO: 42, HLA-A*02 peptide, source gene printed 5LC39A6]”, for which the “Peptide Exchange” value was ““++++” (≥75% = ++++)”.

For “FMSKLVPAI (listed as Homo sapiens) [SEQ ID NO: 9, HLA-A*02 peptide, source gene TPRG1]”, the “Peptide Exchange” value is listed as ““+++” (≥50 = +++)”.

In the case of “FSFPVSVGV (listed as Homo sapiens) [SEQ ID NO: 20, HLA-A*02 peptide, source gene DUSP4]”, the “Peptide Exchange” value is listed as ““+++” (≥50 = +++)”.

Turning to “GLHSLPPEV (listed as Homo sapiens) [SEQ ID NO: 10, HLA-A*02 peptide, source gene LRRC8E]”, the “Peptide Exchange” value is listed as ““+++” (≥50 = +++)”.

In the case of “GLLPTSVSPRV (listed as Homo sapiens) [SEQ ID NO: 11, HLA-A*02 peptide, source gene SCUBE2]”, the “Peptide Exchange” value is listed as ““++” (≥20% = ++)”.

Consider “GLSYIYNTV (listed as Homo sapiens) [SEQ ID NO: 31, HLA-A*02 peptide, source gene COG6]”, for which the “Peptide Exchange” value was ““++” (≥20% = ++)”.

On to “GLVATLQSL (listed as Homo sapiens) [SEQ ID NO: 32, HLA-A*02 peptide, source gene IFI6]”, for which the “Peptide Exchange” value is listed as ““+++” (≥50 = +++)”.

Take “GLVQSLTSI (listed as Homo sapiens) [SEQ ID NO: 8, HLA-A*02 peptide, source gene ABCC11]”: the “Peptide Exchange” value is listed as ““++++” (≥75% = ++++)”.

Consider “ILFDVVVFL (listed as Homo sapiens) [SEQ ID NO: 25, HLA-A*02 peptide, source gene C4orf3]”, for which the “Peptide Exchange” value is on record as ““++” (≥20% = ++)”.

As to “ILTELPPGV (listed as Homo sapiens) [SEQ ID NO: 33, HLA-A*02 peptide, source gene ZNF407]”, the “Peptide Exchange” value is ““++” (≥20% = ++)”.

Regarding “KAFPFYNTV (listed as Homo sapiens) [SEQ ID NO: 12, HLA-A*02 peptide, source gene NAIP]”, the “Peptide Exchange” value was ““++” (≥20% = ++)”.

Take “KLLDMELEM (listed as Homo sapiens) [SEQ ID NO: 39, HLA-A*02 peptide, source gene FAH]”: the “Peptide Exchange” value is ““++++” (≥75% = ++++)”.

With “KLYEGIPVL (listed as Homo sapiens) [SEQ ID NO: 13, HLA-A*02 peptide, source gene NEK10]”, the “Peptide Exchange” value was ““++” (≥20% = ++)”.

Turning to “KQLELELEV (listed as Homo sapiens) [SEQ ID NO: 14, HLA-A*02 peptide, source gene MUC6]”, the “Peptide Exchange” value is listed as ““+++” (≥50 = +++)”.

Turning to “LLMUVAGLKL (LLM[pT]VAGLKL; listed as Homo sapiens) [SEQ ID NO: 38, HLA-A*02 peptide, source gene PCNXL3; U = phospho-threonine]”, the “Peptide Exchange” value is on record as ““++++” (≥75% = ++++)”.

In the case of “SLAEPRVSV (listed as Homo sapiens) [SEQ ID NO: 27, HLA-A*02 peptide, source gene FASN]”, the “Peptide Exchange” value is ““+++” (≥50 = +++)”.

Consider “SLAWDVPAA (listed as Homo sapiens) [SEQ ID NO: 26, HLA-A*02 peptide, source gene FASN]”, for which the “Peptide Exchange” value is ““+++” (≥50 = +++)”.

Take “SLFPSLVVV (listed as Homo sapiens) [SEQ ID NO: 15, HLA-A*02 peptide, source gene PLEC]”: the “Peptide Exchange” value was ““+++” (≥50 = +++)”.

“SLFSVPFFL (listed as Homo sapiens) [SEQ ID NO: 28, HLA-A*02 peptide, source gene TM9SF1]”: the “Peptide Exchange” value is listed as ““++++” (≥75% = ++++)”.

Turning to “SLLSEIQAL (listed as Homo sapiens) [SEQ ID NO: 35, HLA-A*02 peptide, source genes AKAP9, PCNT]”, the “Peptide Exchange” value is reported as ““++++” (≥75% = ++++)”.

With “SLNDQGYLL (listed as Homo sapiens) [SEQ ID NO: 41, HLA-A*02 peptide, source gene MCM8]”, the “Peptide Exchange” value is ““+++” (≥50 = +++)”.

Consider “SLVEGEAVHLA (listed as Homo sapiens) [SEQ ID NO: 4, HLA-A*02 peptide, source genes TFAP2E, TFAP2A, TFAP2B, TFAP2C]”, for which the “Peptide Exchange” value was ““++” (≥20% = ++)”.

Turning to “SMMGLLTNL (listed as Homo sapiens) [SEQ ID NO: 16, HLA-A*02 peptide, source gene ESR1]”, the “Peptide Exchange” value was ““++++” (≥75% = ++++)”.

Take “TIASSIEKA (listed as Homo sapiens) [SEQ ID NO: 17, HLA-A*02 peptide, source gene STPG2]”: the “Peptide Exchange” value was ““++” (≥20% = ++)”.

With “TLLGLAVNV (listed as Homo sapiens) [SEQ ID NO: 36, HLA-A*02 peptide, source gene CHPT1]”, the “Peptide Exchange” value is ““++++” (≥75% = ++++)”.

Regarding “YILLQSPQL (listed as Homo sapiens) [SEQ ID NO: 18, HLA-A*02 peptide, source gene MUC6]”, the “Peptide Exchange” value is recorded as ““++++” (≥75% = ++++)”.

The record behind these values is patent US11065314B2, “Peptides and combination of peptides for use in immunotherapy against breast cancer and other cancers” (Immatics Biotechnologies GmbH, priority 2015, dated 2021).
